Test results taken from the supplement of paper PMC9170038.

What was measured:
[1] = tested on: MS2 coat protein; assay: apparent KD of MS2 coat protein, switch OFF state (with FMN for OFF switches, without FMN for ON switches); designed switch direction (-1 OFF switch, 1 ON switch): -1; higher = weaker reporter binding; settings: FMN input: 0 or 200 uM; Eterna round: R93 (includes R88 designs)
In short: (§1)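 Designed RNA switches were made by on-chip transcription from Illumina sequencing clusters and then titrated with SNAP-549-labelled MS2 coat protein. Twofold steps ran from 0.7 or 1.5 nM to 3 µM, each lasting 0.8–1.5 h early and 10–20 min late, in 100 mM Tris-HCl pH 7.5, 80 mM KCl, 4 mM MgCl2, without or with constant ligand. Apparent KD is the per-design median of normalised cluster binding-curve fits.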

[2] = tested on: MS2 coat protein; assay: apparent KD of MS2 coat protein, switch ON state; designed switch direction (-1 OFF switch, 1 ON switch): -1; higher = weaker reporter binding; settings: FMN input: 0 or 200 uM; Eterna round: R93 (includes R88 designs)
In short: as §1

| Sequence | apparent KD of MS2 coat protein [1] | apparent KD of MS2 coat protein [2] |
| --- | --- | --- |
| AAACGUUGAGGAUAUACAGAAGGGUAUAAAUCAUAAAAAACACAUGAGGAUCACCCAUGUAGAAGGCAACGAAA | 0.0468 µM | 0.0979 µM |
| ACAUGUACAGGAUAUACAUGGAAAAAAAAAAAAAAAAAACUACAUGAGGAUCACCCAUGUAGAAGGGUACAUGA [Ex2 Design 193: Random 12B] | 0.0257 µM | 0.0258 µM |
| AAAAAGGUAGGAUAUACGAAAAAAAAGGGUAGAAAAAAAACACAUGAGGAUCACCCAUGUAGAAGGACCAAAAA [Ex 2 sub 1] | 0.0774 µM | 0.0263 µM |
| AAGACUAGAGGAUAUACAUGAGGAUCACCCAUGUAACUGUCAGGAAACUGACGGAGAAGUAGAAGGCUAGUCAA [Mat - Exclusion 3 - JL mod - D85] | 0.0202 µM | 0.0161 µM |
| AGCUAGUGAGGAUAUACGAACAAGUAAACGGACUGUAAGGGACAUGAGGAUCACCCAUGUAGAAGGCACUAGCA [Diamond 59] | 0.0745 µM | 0.0286 µM |
| GGUUGUCGAGGAUAUACAUGAGGAUCACCCAUGUGAGAGAAAAAAGUGAGAAAGAAAAGUAGAAGGCGAUGACG [salish99-ex3-58] | 0.18 µM | 0.0382 µM |
| AAGAAAGGAGGAUAUACAUGAGGAUCACCCAUGUAAAAGAAAGAAGGGAAAGAGAAAAGUAGAAGGCCUAAGAA [Wahibre Psamtik I] | 0.031 µM | 0.0327 µM |
| AAAAAGUCAGGAUAUGCGAAGGCGUCUGAUAGACGAGGCUAGCAGAAGGGACAUGAGGAUCACCCAUGUGGAAG [Mat - Exclusion 4 - Eli mod - D89] | 0.121 µM | 0.0813 µM |
| AUAAAGUGAGGAUAUGUAAAAAUAACGAAAGUUAUAAAUAAACAGAAGGCACAUGAGGAUCACCCAUGUGAAAU [Meechl MS2 EX4 62% 2] | 0.0225 µM | 0.0242 µM |
| GAAAAGUCAGGAUAUGCAGACAAAGCAAAAAAGCAAUGUCUGCAGAAGGGACAUGAGGAUCACCCAUGUAAAAG [Mat - Exclusion 4 - Mayanna - D116] | 0.0701 µM | 0.0611 µM |
| CGGGAGUCAGGAUAUACGAACAUGUCGCCAGAUGUCAAGGUACAUGAGGAUCACCCAUGUAGAAGGGAGGAGAG [salish99-Ex2-34] | 0.065 µM | 0.0808 µM |
| AAAAAGGCAGGAUAUGCAUACCCACGAAAAAAAACGCUGGGACAUGAGGAUCACCCAUGUAGAAGGGCCAAAAA [Dora Explored 11 - Jieux - Exclusion 2] | 0.0282 µM | 0.054 µM |
| AAAAAACAUGAGGAUCACCCAUGUGAGGAUAUCCAAAACAAAAAAAAACAAAACAAAAGGAGAAGGCACAUAAA [Amethyst 54] | 0.0431 µM | 0.0588 µM |
| AAAACGGUAGGAUAUACGAAAAAAAAGGGAGAACAAAAGGGACAUGAGGAUCACCCAUGUAGAAGGACCAAAAA [Diamond 89] | 0.0847 µM | 0.0406 µM |
| AGCAAGUGAGGAUAUGCGAAGUCAGGACACACACUGACGAAGCAGAAGGCACAUGAGGAUCACCCAUGUAAGCA [JR_Exclusion-4 65% 1] | 0.0271 µM | 0.0331 µM |
| AGUUGGCGAGGAUAUACAUGAGGAUCACCCAUGUGAAAUCGCGAAGAAAUAGGGAAAAGUAGAAGGCGCUGACA [Ruby 61] | 0.0199 µM | 0.0116 µM |
| AACGAACAUGAGGAUCACCCAUGUCAGGAUAUGCGAAGAACGAUCGAACAAACGAUAAGCAGAAGGGACAGAGA [Amethyst 98] | 0.05 µM | 0.0251 µM |
| AAGAAGAUAGGAUAUACAAGAAAGAAAGAAAAGAAAAGAAAACAUGAGGAUCACCCAUGUAGAAGGAUCUAGAA [EteRNA is fun!] | 0.0159 µM | 0.0308 µM |
| GAUAGUGAAGGAUAUACUGGAGGAGUGCGAUAAAAGAAAGAACAUGAGGAUCACCCAUGUAGAAGGUCAGAAGU [JR_Exc002_Sub1226] | 0.0273 µM | 0.0247 µM |
| AAAACGGUAGGAUAUACGAUUGGGAACUAGACCGAGAAACCACAUGAGGAUCACCCAUGUAGAAGGGCCAAAAA [Ex2 Malc#13] | 0.0362 µM | 0.0311 µM |
| AAGAAGUCAGGAUAUACAUGAGGAUCACCCAUGUAAAAGAAAGAAAGGGAAAAGAAAAGUAGAAGGGACAAGAA [Usermaatre-akhenamun Ramesses VIII] | 0.0255 µM | 0.0182 µM |
